According to the nanobody polyreactivity screen of Harvey et al. (2022):

Assay: yeast display, Sf9 membrane polyspecificity reagent, FACS + sequencing; frameworks hold sequencing errors
How it was run: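 A nanobody's polyreactivity label depends on the gate it was sorted from. Yeast display cells were stained with 10% biotinylated, detergent-solubilized Sf9 membrane reagent for 1 hour at 4 °C, enriched on streptavidin microbeads and sorted by FACS. The low and high (top ~1%) gates were set on anti-HA fluorescence for expression and streptavidin fluorescence for reagent binding.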

Sequence	polyreactivity (PSR sort gate)
QVQLVESGGGLVQAGGSLRLSCAASGGTFSSNDMGWYRQAPGKERELVAAISWSGSSTDYADSVKGRFTISRDNAKNTVYLQMNSLKPDDTAVYYCNTDYWEITYSGVIWPEYDYWGQCTQVTVSS	low polyreactivity
QVQLVESGGGLVQAGGSLRLSCAASGGTFSTNAMGWYRQAPGNERELVAAISLSGGRTDADSVKGRFTISRDNAKNTVYLQMNSLKPEDTAVYYCNADSAGITRARSELDYWGQGTQVTVSS	low polyreactivity
QVQLVESGGGLVQAGGSLRLSCAASGGTFSVYGMGGYRQAPGKERELVAAITLSGGRTYYADSVKGRFTISRDNATNTLSLQMNSLQPEDTAVYYCNTLPWSRTKRDYWGQGTQGTVSS	low polyreactivity
QVQLVESGGGLVQAGGSLRLSCAASGGTFSYNAMGWYRQAPGKERELVAAISWSGTRTYYADSVKGRFTISRDNAKNTVYLQMNSLKPEDTAVYYCNKTPPNRGRYDYCGQGTQVTVSS	low polyreactivity
QVQLVESGGGLVQAGGSLRLSCAASGGTFSYYAMGWYRQAPGKERELVASISTDGGSTYYADSVKGRFTISRDNAKNTVYLQMNSLKPEDTAVYYCNARPRGYSDRYGYWGQGTQVTVSS	high polyreactivity
QVQLVESGGGLVQAGGSLRLSCAASGGTFSYYTMGWYRQAPGKERELVARISKNGGRTYYADSVKGRFTISRDNAKNTVYLQMNCLKPEDTAVYYCNAAGRTYDFSGGRTMEYWGQGTQVTVSS	high polyreactivity
QVQLVESGGGLVQAGGSLRLSCAASGGTFTFYAMGWYRQAPGKERELVATINWSGGSTYYADSVKGRFTNSRDNAKNTVYLQMNSLKPEDTAVYYCNAAWAYKSVEYWGQGTQVTVSS	low polyreactivity
QVQLVESGGGLVQAGGSLRLSCAASGGTFVGYAMGWSRQAPGKERELVASITRRGGNTYYADSVKVRFTISRDNATNTFYLQMNSLNPEDTAVYYCANALVVQYGRYTGHPYDYWGQGTQVTVSS	high polyreactivity
QVQLVESGGGLVQAGGSLRLSCAASGGTFVYYTMGWYRQAPGKERELVAAITQSGSTTYYADSVKGRFTISRDNAKNTVYLQMNSLKPEDTAVYYCARRYGTWNAYDYWGQGTQVTVSS	low polyreactivity
QVQLVESGGGLVQAGGSLRLSCAASGGTFYGYAAMGWYRQAPGKERELVAAISRSGGRTYYADSVKGRFTISRDNAKNTVYLQMNSLKPEDTAVYYCNVGFYPYYFLTYQGGDYWGQGTQVTVSS	high polyreactivity
QVQLVESGGGLVQAGGSLRLSCAASGGTFYGYAMGWYRQAPGKERELVAAISYNGGNTYYADSVKGRFTISRDNAKNTVYLQMNSLKAEDTAVYYCAAGYSYRYGYWGQGTQLTVSS	low polyreactivity
QVQLVESGGGLVQAGGSLRLSCAASGGTFYPYAMGWYRQAPGKERELVAAISASDDNTYYADSVKGRFTISRDNAKNTVYLQMNSLKPEDTAVYYCAKRSYFYPYGYWGQGTQVTVSS	high polyreactivity
QVQLVESGGGLVQAGGSLRLSCAASGGTFYRNAMGWSRQAPGKERELVAAINYRGDRTYYADSVKGRFTISRDNAKNTVYLQMNSLKPEDTAVYYCAADSYPAYLGFVGFDYWGQGTQVTVSS	low polyreactivity
QVQLVESGGGLVQAGGSLRLSCAASGGTFYRYAMGWYRQAPGKERELVAVISKRGGTTYYADSVKGRFTISRDNAKITVYLQMNSLKPEDTAVYYCADRPYYWGQGTQVTVSS	high polyreactivity
QVQLVESGGGLVQAGGSLRLSCAASGGTFYSYAMGWYRQAPGIEREVVAAISRRGGSTYYADSVKGRFTISRDNAKNTVYLLMNSLKPEDTAVYFCNTYIYQVRDDYWGQGTQVTVSS	high polyreactivity
QVQLVESGGGLVQAGGSLRLSCAASGGTFYYYAMGWYRQAPGKERELVAAISRDGSTYYADSVKGRFTISRDNAKNTVYLQMNSLKPEDTAVYYCAVRTRRKYGYWGQGTQVTVSS	high polyreactivity

Sequence	polyreactivity (PSR sort gate)
QVQLVESGGGLVQAGGSLRLSCAASGGTIAPYAMGWSRQAPGKERELVATISYSGTSTNYADSVKGRFTISRDNAKNTVYLQMNSLKPEDTAVYDCAKRYHQYRWRGWLWGFDYWGQGNQVTVSS	high polyreactivity
QVQLVESGGGLVQAGGSLRLSCAASGGTIFAYAMGWYIQAPRERELVPAISWSGDSTYYADSLKGRFTISRDNAKNTVYLQMNSLKPEETAVYYCAADYGFEFYYWGQGTQVTVAS	high polyreactivity
QVQLVESGGGLVQAGGSLRLSCAASGGTIGSNTMGWYRQAPGKERELVAAITSGVSTNYADSVKGRFTISRDNAKNTVYLQMISLKPEDNAVYYCAKVLWSEEYETIITSYGFDYWGQGTQVTVSS	low polyreactivity
QVQLVESGGGLVQAGGSLRLSCAASGGTINGNTMGWYRQAPGKERELVAVIDWSGGSTYYADSVKGRFTISRDNAKNTVYLQMNSLKPEDTAVNYCNADSDAQFREPKGMYYWGQGTQVTLSS	low polyreactivity
QVQLVESGGGLVQAGGSLRLSCAASGGTIRVYAMRWYRQAPGKERELVAAITGRGGSTYYADSVKGRFTISRDNAKNTVYLQMNSLKPEDTAVYYCAKDPVTTYYKYDYWGQGTQVTVSS	low polyreactivity
QVQLVESGGGLVQAGGSLRLSCAASGGTIVYYAMGWYREAPGKERELVAAINWSGGSTYYADSVKGRFTISRDKAKNTVYLQMNSLKPEDTAVLLLQRSGLRRSGVWFDYWGQGTQVTVSS	low polyreactivity
QVQLVESGGGLVQAGGSLRLSCAASGGTIYFYDMGWYRQAPGKEREFVAAIDGSAGRTYYADSVKGRFTISRDNAKNTVYLQMNSLKPEDTAVYYCAADWAQQSEQEYGTTYDYWGQGTQVTVSS	low polyreactivity
QVQLVESGGGLVQAGGSLRLSCAASGGTLKYYAMGLYRQAPGKERELVATISSRGGSTYYADSVKGRFTISRDNAKNTVYLQMNSLKPEDTAVYYCARRYWVQSRYPELDYWGQGTQVTVSS	high polyreactivity
QVQLVESGGGLVQAGGSLRLSCAASGGTLPKYAMGWYRQAPGKERELVARITWNDGTTYYADSVKGRFTISRDNAKNTVYLQMNSLKPEDTAVYYCNTDRAYWFLYPFSYYYWGQGTQVTVSS	low polyreactivity
QVQLVESGGGLVQAGGSLRLSCAASGGTLRGNAMGWYRQAPGKERELVAAISGSAGRTYYADSVKGRFTISRDNAKNTVYLQMTSLKPVDTAVYYCAASRRVVKMDYWGQGTQVTVSS	high polyreactivity
QVQLVESGGGLVQAGGSLRLSCAASGGTLYLYAMGWYRQAPGKERELVAAISYNGGSTYAESVKGRFTISRDNAKNTVYLQKNSLKPEDTAVYYCAADRSPRGLGGYWGQGTQVTVSS	low polyreactivity
QVQLVESGGGLVQAGGSLRLSCAASGGTPQNAMGWYRQAPGKDRELVAAISKRGGSTYYADSVKGRFTISRDNAKNTGYLQMNSLKPEDTAVYDCAAVSQRAQHTSEYDYWGQGTQVTVSS	high polyreactivity
QVQLVESGGGLVQAGGSLRLSCAASGGTQRYYAMGWYRQAPGKERDFVASISRSGGSTYYADTVKGRFTISRDNAKNTVYLQMNSLKPEDTAVYYCAAYWSPGYTTRRGYWGQGTQVTVSS	high polyreactivity
QVQLVESGGGLVQAGGSLRLSCAASGGTQRYYVMGSYRQAPGKERELVAAISWSGDSTYYADSVKGRFTISRDNAKNTVYLQMNSLKPEDTAVYYCAATYYLTYYYGQANHCYDYWGQGTQVTVSS	low polyreactivity
QVQLVESGGGLVQAGGSLRLSCAASGGTSIYNDMGWYRQAPGKERELVAAISWSGGSTYYADSVKGRFTISRDNAKNTVYLQMNSLKPEDTAVYYCATQGFYKDYSRYDYWGQVTQVTVSS	low polyreactivity
QVQLVESGGGLVQAGGSLRLSCAASGGTSQRYVMGWYRQAPGKERELVAAITSTGSTYYADSVKWRFTISRDNAKNTVYLQMNSLKPEDTAVYYCATGRLRIYKSYYWGQGTQVTVSS	high polyreactivity
